Measured values published in patent US8951750B2 (BASF SE, priority 2007, dated 2015).
Where two headings read alike, the source gives them in different places.

Experiments:
[1] = system: AMDase from Mesorhizobium sp. BNC1; assay: BTB activity assay, alkenyl-substituted substrates of formula I; format: biochemical; conditions: 30° C.
Procedure: (§1) This method involves measuring spectrophotometrically at 620 nm the change of yellow colour to green/blue of pH indicator—BTB with increasing concentration of [OH^−] formed during the decarboxylation reaction. […] More concentrated buffer (10 mM) gives better results with higher concentration of enzyme or quicker reactions since changes of colour are slower due to higher buffer capacity.
(§2) All kinetics assays were performed on an Anthos Zenyth 3100 96-well microplate reader. 10 μl of 20-500 mM phenylmalonate or methyl-phenylmalonate solution (pH adjusted to 7.2) was added to 180 μl of 5-10 mM MOPS buffer pH 7.2 containing 0.0186 mM bromothymol blue. The reaction was initiated by addition of 10 μl of decarboxylase solution (0.002-0.02 mM, final concentration). The sensitivity of the reaction depends on the concentration of buffer, lower concentrations give higher sensitivity. The values of KM and kcat were calculated from spectophotometrical measurements at 620 nm of the resulting blue solution using Lineweaver-Burk plot and the following equations: […]
A BTB activity assay was performed as described above. Compounds of formula I, wherein R^2 is methyl and R^1 is phenyl, ethenyl, propen-1-yl, buten-1-yl or 2-methylpropen-1-yl were tested as substrates.

[2] = system: CC(C)=CC(C)(C(=O)O)C(=O)O; assay: purified protein, by the assay type; conditions: other: 30° C., BTB assay, pH 7.2
Procedure: (§3) All kinetics assays were performed on an Anthos Zenyth 3100 96-well microplate reader. […] The reaction was initiated by addition of 10 μl of decarboxylase solution (0.002-0.02 mM, final concentration). The sensitivity of the reaction depends on the concentration of buffer, lower concentrations give higher sensitivity. The values of KM and kcat were calculated from spectophotometrical measurements at 620 nm of the resulting blue solution using Lineweaver-Burk plot and the following equations:

[3] = system: CC/C=C/C(C)(C(=O)O)C(=O)O; assay: purified protein, by the assay type; conditions: other: 30° C., BTB assay, pH 7.2
Procedure: as §3
C=CC(C)(C(=O)O)C(=O)O = assay: purified protein, by the assay type; conditions: other: 30° C., BTB assay, pH 7.2
Procedure: as §3
C/C=C/C(C)(C(=O)O)C(=O)O = assay: purified protein, by the assay type; conditions: other: 30° C., BTB assay, pH 7.2
Procedure: as §3

[4] = BTB spectrophotometric assay of kinetic constants, substrate 2-methyl-2-phenylmalonate; format: biochemical; conditions: for Km / kcat / reaction with 2-methyl-2-phenylmalonic acid (2) (cell spans Km, kcat, kcat/Km): substrate 2-methyl-2-phenylmalonic acid (2), BTB method; for Km / kcat: His6-tagged enzyme
Procedure: as §1, §2

[5] = substrate 2-methyl-2-phenylmalonic acid (2); literature data (footnote a, ref 6); cited from earlier work
[6] = In vitro decarboxylation of 2-methyl-2-phenylmalonate to 2-phenylpropanoic acid; format: biochemical; conditions: for absolute configuration of the product: 2-phenylpropionate product
Procedure: [formula] [formula] [formula] h) In Vitro Decarboxylation of 2-methyl-2-phenylmalonate to 2-phenylpropanoic Acid by AMDase from Bordetella bronchiseptica and Asp/Glu Racemase from Mesorhizobium sp. BNC1.
To 400 μl of 0.1 M TRIS buffer pH 8, 100 μl of 0.5 M water solution (after adjusting pH to 8) of 2-methyl-2-phenylmalonic acid was added. Then 20 μl of an AMDase solution (10 mg/mL) was added and the reaction was stirred at 30° C. for 8 h. Products were extracted with diethyl ether after acidifying with 1 M HCl and methylated with TMS-diazomethane. The reaction was analyzed by GC (conversion up to 95%) and 2-phenylpropanoic acid formation confirmed by GC-MS, ^1H NMR. Both enzyme products (after methylation) had the same configuration (the same peak on GC with chiral column, ee>99%). Thus according to the literature^7 absolute configuration of the product was R.

[7] = In vivo plate assay for AMDase activity (BTB), substrate phenylmalonate; format: cell-based; conditions: E. coli expressing the enzyme
Procedure: Test Petri dishes were prepared using following medium: 1% tryptone, 0.5% yeast extract, 1% sodium chloride, 1% agar, 0.025% bromothymol blue (BTB). Then pH was adjusted to 6.5 and the medium autoclaved. When medium temperature reached 50-60° C. isopropyl-β-D-thiogalactopyranoside (1 mM, final concentration), kanamycin ([…], final concentration) and phenylmalonic acid (0.36%, final concentration) were added. 100 μl of liquid bacterial culture containing AMDase was plated on test Petri dishes. After 2-3 days of incubation at 37° C. the colonies and surrounding area changed colour to green-blue indicating AMDase activity.

[8] = BTB spectrophotometric assay of kinetic constants, substrate phenylmalonate; format: biochemical; conditions: for Km / kcat: substrate 2-phenylmalonic acid (1), His6-tagged enzyme, BTB method; for decarboxylase activity in words: substrate phenylmalonate 1, purified enzymes
Procedure: as §1, §2

[9] = substrate 2-phenylmalonic acid (1); literature data (footnote a, ref 6); cited from earlier work

Molecule `C=CC(C)(C(=O)O)C(=O)O` [compound 3, 2-methyl-2-vinylmalonic acid] has a Km [1] of 19.4 mM and a kcat [1] of 8.9 s⁻¹.

In the case of “AMDase from Bordetella bronchiseptica KU1201 (Bordetella bronchiseptica)”, the Km [2] is reported as 3.5 mM, the kcat [2] is reported as 5.2 s⁻¹ and the kcat/Km [2] is reported as 1500 M⁻¹ s⁻¹. The Km [3] was 14.4 mM, the kcat [3] was 23.9 s⁻¹ and the kcat/Km [3] was 1600 M⁻¹ s⁻¹. It also gave a Km (C=CC(C)(C(=O)O)C(=O)O) of 7.8 mM, a kcat (C=CC(C)(C(=O)O)C(=O)O) of 42.8 s⁻¹ and a kcat/Km (C=CC(C)(C(=O)O)C(=O)O) of 5500 M⁻¹ s⁻¹. The Km (C/C=C/C(C)(C(=O)O)C(=O)O) was 12.8 mM, the kcat (C/C=C/C(C)(C(=O)O)C(=O)O) was 46.2 s⁻¹ and the kcat/Km (C/C=C/C(C)(C(=O)O)C(=O)O) was 3600 M⁻¹ s⁻¹.

B1: AMDase from Bordetella bronchiseptica: arylmalonate decarboxylase from Bordetella bronchiseptica, SEQ ID NO: 2, Blast entry BAA02419.1 (protein, listed as Bordetella bronchiseptica)
chain: MQQASTPTIGMIVPPAAGLVPADGARLYPDLPFIASGLGLGSVTPEGYDAVIESVVDHARRLQKQGAAVVSLMGTSLSFYRGAAFNAALTVAMREATGLPCTTMSTAVLNGLRALGVRRVALATAYIDDVNERLAAFLAEESLVPTGCRSLGITGVEAMARVDTATLVDLCVRAFEAAPDSDGILLSCGGLLTLDAIPEVERRLGVPVVSSSPAGFWDAVRLAGGGAKARPGYGRLFDESLEHHHHHH
For B1, the Km [4] is given as 26.9 mM, the kcat [4] is given as 278.9 s⁻¹ and the Km [5] is given as 25.5 mM. The kcat [5] was “(29.8)^a s^−1”, the “absolute configuration of the product” value [6] was “R-configuration” and the “colour change of BTB indicator (decarboxylase activity)” value (from here on “colour change of BTB indicator”) [7] was “clear change in colour from yellow to blue”. The Km [8] was 10.7 mM, the kcat [8] was 316.1 s⁻¹ and the Km [9] was 13.9 mM. The kcat [9] was “(353)^a ^ s^−1”.

B2: protein ZP_00801202.1 from Alkaliphilus metalliredigenes QYMF: Asp/Glu racemase [Alkaliphilus metalliredigenes QYMF], SEQ ID NO: 10 (protein)
chain: MSDFSYGGRAKIGLIYPAPGWVMEPEFYLMAPWGVSTYTTRISLKHVNVAELRKLGDQSVEAAELLAQAPLDVIALGCTSGSFVNGSRYDQELIEKMEGVSGGIPCTTTSTAVVAALKALHVTKIAVATPYIDEVNLKAKNFLEAEGLDVVNIKGLGLLQDIEIDRQDMETVYRLAKEVDHVEAQAIVILCTGLRSVPIIEALENDLGKPVISAIQATFWHCLRLSGVRENVEGYGSLLRIEGLLEHHHHHH
modifications: Alkaliphilus metalliredigenes
With B2 the “reaction with 2-methyl-2-phenylmalonic acid (2) (cell spans Km, kcat, kcat/Km)” value (“reaction” for short) [4] was “No reaction”, the “colour change of BTB indicator” value [7] was “only slow development of colour” and the kcat [8] was 0.26 s⁻¹. The “decarboxylase activity in words” value [8] was “very low levels of activity”.

B3: protein NP_888076.1 from Bordetella bronchiseptica RB50: Putative decarboxylase [Bordetella bronchiseptica RB50], SEQ ID NO: 8 (protein, listed as Bordetella bronchiseptica)
chain: MPTPTQMKTTARYRPYAWRAKVGLIVPSTNTINEPEFYRLAPDGVTIHTGRAINAGPATQENYDRMARGVLEAADLIKTAEVDVVAYGCTSGSIVCSLDELCDGMSERVGVPAIATAGAVVAALRALGVRRVAVGTPYIDFVNQREREFLEQYGFEVVSIEGMDLGHTQEERRDIGRVPPQSTFQLARDIDRPQAEAIFLSCTNLATLDMIERIENELGKPVVTSNQATFWACLRLLGLSCAIPGYGRLLTDCLAPITRASYALALEHHHHHH
In the case of B3, the “reaction” value [4] is reported as “No reaction”, the Km [8] is reported as 10 mM and the kcat [8] is reported as 12.4 s⁻¹. The “decarboxylase activity in words” value [8] was “moderate activity”.

B4: protein BAA30082.1 from Pyrococcus horikoshii OT3: Hypothetical arylmalonate decarboxylase [Pyrococcus horikoshii OT3], SEQ ID NO: 6 (protein, listed as Pyrococcus horikoshii)
chain: MYGWRRRIGLIVPSSNTTMEPEFWKMAPEGVSIHTARMRLREVTEESLLEMERHAKDAALELADAEVDVIVYGCTSGSLIKGKGYDKEIAKNLEEASGIKTITTSTAVLNALNTLDIQKVVVATPYIDSVNEREKEFLEANGIEVLRIKGLGIVKNTEIGRQEPWVAYKLALEVYTPEADGLFISCTNFRTIEIIDKLEVELGVPVVTSNQATMWYALKTMKVKEKYDMYGTLLKEKLLEHHHHHH
For B4, the “reaction” value [4] was “No reaction”, the “colour change of BTB indicator” value [7] was “only slow development of colour” and the Km [8] was 41.7 mM. The kcat [8] was 0.09 s⁻¹ and the “decarboxylase activity in words” value [8] was “very low levels of activity”.

B5: protein EAN08019.1 from Mesorhizobium sp. BNC1: Asp/Glu racemase [Mesorhizobium sp. BNC1], SEQ ID NO: 4, shown to have AMDase activity (protein, listed as Mesorhizobium sp.)
chain: MSAEDPVIGLIVPPAAGLVPPEAVAMYPEVTFHASGLGLKEMTPCGYAGVIDLVGDHAERHAQAGAQAVALMGTSLSFFRGAAFNAELITHMSNRSGLPATTMSQAVVDELKSHGARRIAVVTAYRQDVNNLLAAFLNEHGIEARSLKSLGITSVADVAGTPAKRLLQLCKEAVHDAGPVDAVLISCGGLHTLDVIVDVEISTGLPVVTSATAGVRGAVGLLKRSAETAEHATSKFLTGRALEHHHHHH
In the case of B5, the “decarboxylase activity in words” value ([4]; substrate 2-methyl-2-phenylmalonate 2, purified enzymes) is reported as “very efficient decarboxylase activity”, the Km [4] is reported as 22.2 mM and the kcat [4] is reported as 55.8 s⁻¹. The “absolute configuration of the product” value [6] was “R-configuration”, the “ee of 2-phenylpropanoic acid product” value ([6]; GC with chiral column after methylation) was > 99% and the Km [8] was 9.6 mM. For the same molecule, the kcat [8] was 118 s⁻¹ and the “decarboxylase activity in words” value [8] was “very efficient decarboxylase activity”.
